Data on 1 molecule can be found in article PMC10992996, “Human CRB1 and CRB2 form homo- and heteromeric protein complexes in the retina” (Life Science Alliance, 2024).

The assay has as its target T1, CRB1-FLAG p.Y1161C (human, UniProt P82279 26-1406, p.Y1161C).
T1 construct: Crumbs homolog 1, canonical form, human, cDNA NM_202153 as printed, with a patient missense mutation; Made by site-directed mutagenesis of m1; also called CRB1 p.Y1161C; CRB1-FLAG MT; source: HEK293T, transfected, in lysate; not shown: Strep-Strep-FLAG, N-terminal, kept
T1 sequence (looked up): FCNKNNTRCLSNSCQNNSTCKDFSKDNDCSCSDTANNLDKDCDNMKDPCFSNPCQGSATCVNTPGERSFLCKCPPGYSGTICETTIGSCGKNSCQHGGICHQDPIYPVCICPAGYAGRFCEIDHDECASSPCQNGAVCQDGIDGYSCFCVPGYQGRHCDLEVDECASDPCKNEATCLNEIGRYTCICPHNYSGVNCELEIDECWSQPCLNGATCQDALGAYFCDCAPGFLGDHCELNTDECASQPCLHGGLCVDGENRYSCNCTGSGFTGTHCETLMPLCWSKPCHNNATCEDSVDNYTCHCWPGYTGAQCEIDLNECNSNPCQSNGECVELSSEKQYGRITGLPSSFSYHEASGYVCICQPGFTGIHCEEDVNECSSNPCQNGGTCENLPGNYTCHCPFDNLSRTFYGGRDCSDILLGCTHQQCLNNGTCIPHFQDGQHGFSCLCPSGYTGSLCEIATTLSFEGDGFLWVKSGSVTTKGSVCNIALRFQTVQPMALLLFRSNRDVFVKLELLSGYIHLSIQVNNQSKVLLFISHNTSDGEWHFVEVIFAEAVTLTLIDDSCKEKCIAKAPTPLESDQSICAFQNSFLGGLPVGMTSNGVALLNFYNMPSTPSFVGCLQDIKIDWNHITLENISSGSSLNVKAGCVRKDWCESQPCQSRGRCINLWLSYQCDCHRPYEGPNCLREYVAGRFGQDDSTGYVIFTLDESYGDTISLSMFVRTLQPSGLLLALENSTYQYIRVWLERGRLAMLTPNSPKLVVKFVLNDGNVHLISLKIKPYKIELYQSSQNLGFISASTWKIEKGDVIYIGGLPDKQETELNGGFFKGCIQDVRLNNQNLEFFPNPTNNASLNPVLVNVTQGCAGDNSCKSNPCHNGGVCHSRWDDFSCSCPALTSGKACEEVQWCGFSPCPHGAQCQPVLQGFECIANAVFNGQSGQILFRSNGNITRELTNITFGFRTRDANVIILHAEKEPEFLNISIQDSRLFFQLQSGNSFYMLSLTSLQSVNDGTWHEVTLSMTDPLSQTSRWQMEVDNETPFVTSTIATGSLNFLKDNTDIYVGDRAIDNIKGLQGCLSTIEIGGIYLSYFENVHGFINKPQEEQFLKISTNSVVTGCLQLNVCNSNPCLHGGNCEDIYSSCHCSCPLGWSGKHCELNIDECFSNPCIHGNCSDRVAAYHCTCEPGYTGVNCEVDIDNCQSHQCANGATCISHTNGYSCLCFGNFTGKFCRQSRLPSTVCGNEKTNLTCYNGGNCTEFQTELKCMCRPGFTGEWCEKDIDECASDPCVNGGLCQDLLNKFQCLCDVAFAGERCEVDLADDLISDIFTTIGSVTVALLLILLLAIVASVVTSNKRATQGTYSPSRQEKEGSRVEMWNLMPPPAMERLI
As to the kind of experiment: co-IP; HEK293T cells co-transfected pairwise with a FLAG and an HA construct, 48 h; lysis in TBS (30 mM Tris-HCl pH 7.4, 150 mM NaCl) with 0.5% Nonidet P40; FLAG-IP on ANTI-FLAG M2 Affinity Gel 60-90 min at 4°C, elution with FLAG peptide; Western blot with HA and FLAG antibodies; for mutants HA/FLAG signal in eluates relative to WT, three biological replicates. The following applies: partners not purified. A general note: Immunoblotting shows a protein as a band on a membrane.

B1: Human canonical CRB2 (Crumbs homolog 2) (natural protein)
chain: not shown
notes: Crumbs homolog 2, human, cDNA NM_173689; Stood as bait (FLAG copy) and as prey (HA copy) in the pairwise co-IP matrix; each copy carries only one of the two tags; The FLAG copy was the bait of the mass spectrometry pull-downs; also called CRB2-FLAG; CRB2-HA; source: HEK293T, transfected, in lysate (co-IP); HEK293T, transfected, FLAG-IP on beads, washed and purified with 0.01% SDS (retina …)
Consider B1, for which the “percent reduction of the interaction relative to CRB1 WT” value was determined as 11%.
